The target of the data set is DNA-PKcs;Ku70;Ku80 (Homo sapiens (HeLa cells);Homo …, UniProt P78527;P12956;P13010 1-4128;1-609;1-732, ||).

B1: 40N (nicked 40 bp DNA) (dsDNA)
DNA 1: GCATGCTCTACTGCTTCGATATCG
DNA 2: AAGCAGTAGAGCATGC
DNA 3: GCATGCTCTACTGCTTCGATATCG
DNA 4: AAGCAGTAGAGCATGC
modifications: none stated
With B1, the binding result was “binds”.

For the origin of these results see article PMC7897279.
